Literature values as cited in article PMC10558290.
Where two headings read alike, the source gives them in different places.

Legend:
[1] = target: G-actin (Saccharomyces cerevisiae) (UniProt P60010)
[2] = target: G-actin (Saccharomyces cerevisiae) (UniProt P60010); remark: listed apart in the source

Chain of Profilin Pfy1 (P07274 whole entry): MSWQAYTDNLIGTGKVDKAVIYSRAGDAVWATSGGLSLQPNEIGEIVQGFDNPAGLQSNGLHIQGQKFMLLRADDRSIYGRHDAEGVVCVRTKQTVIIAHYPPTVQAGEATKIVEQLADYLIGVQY
Chain of Srv2 (P17555 whole entry): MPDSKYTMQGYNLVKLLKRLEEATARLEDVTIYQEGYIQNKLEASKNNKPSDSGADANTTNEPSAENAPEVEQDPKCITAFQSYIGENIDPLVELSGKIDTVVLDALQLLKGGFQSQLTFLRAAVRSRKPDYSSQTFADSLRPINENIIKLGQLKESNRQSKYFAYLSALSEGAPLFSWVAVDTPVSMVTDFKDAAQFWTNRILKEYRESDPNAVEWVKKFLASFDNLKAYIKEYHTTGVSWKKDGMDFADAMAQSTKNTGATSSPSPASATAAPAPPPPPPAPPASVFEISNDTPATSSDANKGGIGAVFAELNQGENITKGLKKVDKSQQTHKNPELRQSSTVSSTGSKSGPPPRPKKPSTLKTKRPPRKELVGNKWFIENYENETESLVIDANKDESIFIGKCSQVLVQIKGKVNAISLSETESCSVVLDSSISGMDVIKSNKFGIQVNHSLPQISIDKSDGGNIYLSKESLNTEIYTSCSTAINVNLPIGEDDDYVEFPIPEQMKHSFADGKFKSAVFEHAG

Row | Substance | Kd [1] [nM] | Kd [2] [nM]
1 | Profilin Pfy1 (from UniProt P07274) | 100 | –
2 | Srv2 (from UniProt P17555) | – | 18
